The test has as its target T1, B7330N-myc (myc-tagged B7330N expressed from pcDNA3.1-B7330N-myc in COS-7 cells) (human, UniProt Q8NCL4 1-622).
T1 construct: Expressed by transfection in COS-7 cells and tested in cell lysates; also called GALNT6; not shown: myc-his tag from the pcDNA3.1-myc-his vector (Invitrogen)
T1 sequence: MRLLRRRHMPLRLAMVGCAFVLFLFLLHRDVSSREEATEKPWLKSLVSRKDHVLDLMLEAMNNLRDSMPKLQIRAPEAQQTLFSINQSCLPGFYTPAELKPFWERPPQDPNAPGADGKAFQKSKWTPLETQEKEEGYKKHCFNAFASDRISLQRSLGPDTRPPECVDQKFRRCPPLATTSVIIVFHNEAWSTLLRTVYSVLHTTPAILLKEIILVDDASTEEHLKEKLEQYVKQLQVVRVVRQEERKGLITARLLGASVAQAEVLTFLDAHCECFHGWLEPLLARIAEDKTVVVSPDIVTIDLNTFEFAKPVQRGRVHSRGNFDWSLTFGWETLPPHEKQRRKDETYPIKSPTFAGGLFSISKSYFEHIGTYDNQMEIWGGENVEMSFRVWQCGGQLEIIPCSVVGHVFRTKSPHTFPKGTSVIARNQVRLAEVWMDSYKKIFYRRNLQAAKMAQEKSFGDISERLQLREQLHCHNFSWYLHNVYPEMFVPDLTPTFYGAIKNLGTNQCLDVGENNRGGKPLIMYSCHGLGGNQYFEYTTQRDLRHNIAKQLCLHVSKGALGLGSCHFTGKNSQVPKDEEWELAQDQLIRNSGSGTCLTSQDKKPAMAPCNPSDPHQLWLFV
Kind of test: co-immunoprecipitation from co-transfected COS-7 cells, anti-myc pull-down. The source says: To investigate that hypothesis, we designed two kinds of tagged-B7330N constructs to examine homo-oligomerization. pCAGGS-B7330N-HA and pcDNA3.1-B7330N-myc were co-transfected into COS-7 cells and co-immunoprecipitated using anti-HA or anti-myc antibody, respectively.

B1: B7330N-HA (HA-tagged B7330N expressed from pCAGGS-B7330N-HA in COS-7 cells) (enzyme)
chain: T1 sequence
modifications: N-glycosylated at Asn-476
notes: Expressed by transfection in COS-7 cells and tested in cell lysates; also called GALNT6; UDP-N-acetyl-alpha-D-galactosamine: polypeptide N-acetylgalactosaminyltransferase 6; not shown: C-terminal HA tag from the pCAGGS-HA vector
For B1, the binding result is on record as “binds”.

The values above are taken from US20090202543A1 (ONCOTHERAPY SCIENCE, published 2009).
